In patent publication US20220162293A1 (UNIVERSITY OF BRITISH COLUMBIA, published 2022):

T1: Linear … (SEQ ID NO: 2)
T1 sequence (peptide): CGGTTEQGG

T2: cyclo(CGGTTEQGG) (SEQ ID NO: 2) (cyclic peptide: head to tail cyclization (amide condensation of the linear peptide))
T2 construct: Coated on ELISA plates
T2 peptide: CGGTTEQGG

T3: Linear CGGTTEQGG (SEQ ID NO: 2)
T3 construct: Coated on ELISA plates; also called linear peptide
T3 peptide: CGGTTEQGG


Columns and labels:
BSA = biological target: T4, BSA (bovine, UniProt P02769 25-607); assay: screen of hybridoma supernatants
T4 construct: Carrier protein used as negative screening antigen; also called bovine serum albumin
T4 sequence (P02769 25-607 limits assumed): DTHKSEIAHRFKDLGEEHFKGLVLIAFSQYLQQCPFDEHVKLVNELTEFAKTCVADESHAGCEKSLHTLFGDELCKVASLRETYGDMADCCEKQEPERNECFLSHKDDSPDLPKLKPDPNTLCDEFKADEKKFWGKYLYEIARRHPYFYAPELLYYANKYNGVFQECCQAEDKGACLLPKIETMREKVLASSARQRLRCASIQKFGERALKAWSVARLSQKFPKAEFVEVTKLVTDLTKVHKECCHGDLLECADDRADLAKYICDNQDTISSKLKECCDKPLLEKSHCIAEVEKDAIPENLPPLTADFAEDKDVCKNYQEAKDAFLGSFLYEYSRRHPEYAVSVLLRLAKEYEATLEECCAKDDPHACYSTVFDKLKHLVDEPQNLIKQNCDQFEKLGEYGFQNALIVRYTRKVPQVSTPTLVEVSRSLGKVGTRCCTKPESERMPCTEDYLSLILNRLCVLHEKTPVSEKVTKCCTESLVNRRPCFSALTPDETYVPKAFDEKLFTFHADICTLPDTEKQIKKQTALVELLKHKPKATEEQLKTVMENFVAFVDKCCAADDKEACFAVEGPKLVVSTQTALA

Linear … (SEQ ID NO: 2) = biological target: T1, Linear … (SEQ ID NO: 2); assay: indirect ELISA, peptide coated 0.1 µg/well, neat hybridoma supernatant
[1] = biological target: T2, cyclo(CGGTTEQGG) (SEQ ID NO: 2); assay: as above
Method: (§1) ELISA plates were coated with 0.1 μg/well with peptide cyclo([…]) (SEQ ID NO: 2) or cyclo(CGTTEQG) (SEQ ID NO: 3) or the linear versions thereof at 100 μL/well in carbonate Coating Buffer (pH 9.6) overnight at 4 C. In other assays, cyclo([…]) (SEQ ID NO: 32) or cyclo (CGTTEGG) (SEQ ID NO: 29) were also used to coat the ELISA plates.
(§2) The plates were blocked with 3% skim milk powder in PBS for 1 hour at room temperature. The primary antibody, hybridoma tissue culture supernatant neat at 100 uL/well, was incubated for 1 hour at 37 C with shaking. The secondary antibody, goat anti-mouse IgGy-HRP at a 1:10,000 dilution was added at 100 uL/well in PBS-Tween and incubated for 1 hour at 37 C with shaking. All washing steps were performed for 30 mins with PBS-Tween. TMB Substrate was added at 50 uL/well, developed in the dark and stopped with equal volume 1M HCl. The development time was 1-2 min and the plate was read at 450 nm.

[2] = biological target: T5, TDP-43 in human spinal cord homogenates of sporadic ALS patients (human, UniProt Q13148 1-414, limits assumed); assay: dot blot of spinal cord homogenates on PVDF
T5 construct: Tissue homogenate dotted on PVDF; also called sALS samples; pathogenic TDP43 in spinal cord homogenates from ALS patients
T5 sequence (Q13148 whole entry): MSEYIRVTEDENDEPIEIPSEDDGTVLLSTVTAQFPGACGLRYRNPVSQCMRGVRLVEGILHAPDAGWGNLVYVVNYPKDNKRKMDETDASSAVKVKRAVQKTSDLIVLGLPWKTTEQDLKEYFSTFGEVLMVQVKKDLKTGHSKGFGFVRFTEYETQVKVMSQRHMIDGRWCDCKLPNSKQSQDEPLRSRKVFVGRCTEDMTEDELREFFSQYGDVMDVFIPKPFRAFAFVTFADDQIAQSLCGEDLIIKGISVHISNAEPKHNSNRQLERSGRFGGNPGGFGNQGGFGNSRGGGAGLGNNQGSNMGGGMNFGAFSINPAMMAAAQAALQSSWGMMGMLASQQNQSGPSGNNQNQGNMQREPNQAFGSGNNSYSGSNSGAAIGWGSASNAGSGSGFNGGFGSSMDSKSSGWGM

[3] = biological target: T3, Linear CGGTTEQGG (SEQ ID NO: 2); assay: indirect ELISA, peptide coated 0.1 µg/well, neat hybridoma supernatant
Method: as §1, §2

binding result (BSA) | ELISA signal (read at 450 nm) (absorbance at 450 nm) (Linear … (SEQ ID NO: 2)) | ELISA signal (read at 450 nm) [1] [absorbance at 450 nm] | binding result [2] | ELISA signal (read at 450 nm) [3] [absorbance at 450 nm] | Binder
no binding | 0.115 | 2.29 | – | – | 9C5 (antibody, V domains shown, IgG3, kappa; also called clone 9C5; antibody 6) VH: EVQLVESGGGLVKPGGSLKLSCAASGFTFSDYYMYWVRQTPEKRLEWVATISDGGSYTSYPDSVKGRFTISRDNAKNNLYLQMSSLRSEDTAMYYCARDYYGSSSYTSGFAYWGQGTLVTVSA VL: DVLMTQTPLSLPVSLGDQASISCRSSQSIVHSNGNTYLEWYLQKPGQSPKLLIYKVSNRFSGVPDRFSGSGSGTDFTLKISRVEAEDLGVYYCFQGSHVPGTFGGGTKLEIK
no binding | – | 1.1 | binds | 0.191 | 6C5 (antibody, V domains shown, IgG1, kappa; also called Antibody 6C5) VH: EVKLVESGGGLVQPGGSLKLSCATSGFTFSDYYMYWVRQTPEKRLEWVAYISNGGGSTYYPDTVKGRFTISRDNAKNTLYLQMSRLKSEDTAMYYCAREGGTAWFAYWGQGTLVTVSA VL: DVLMTQTPLSLPVSLGDQASISCRSSQSIVHSNGNTYLEWYLQKPGQSPKLLIYKVSNRFSGVPDRFSGSGSGTDFTLKISRVEAEDLGVYYCFQGSHVPYTFGGGTKLEIK
no binding | 0.068 | 2.83 | – | – | 3H5 (antibody, V domains shown, IgG1, lambda; also called clone 3H5; antibody 4) VH: QIQLVQSGPELKKPGETVKISCKASGYTFTDYSMHWVKQAPGKGLKWMGWINTETGEPTYADDFKGRFAFSLETSASTAYLQINNLKNEDTATYFCASRRWYPYYFDYWGQGTTLTVSS VL: QAVVTQESALTTSPGETVTLTCRSSTGAVTTSNYANWVQEKPDHLFTGLIGGPNNRAPGVPARFSGSLIGDKAALTITGAQTEDEAIYFCALWYSNHWVFGGGTKLTVL
no binding | 0.071 | 1.1 | – | – | 11F3 (antibody, V domains shown, IgG1, kappa; also called clone 11F3; antibody 3) VH: QIQLVQSGPELKKPGETVKISCKASGYTFTDYSMHWVKHSPGKGLKWMGWINTETGEPTYADDFKGRFAFSLETSASTAYLQINNLKNEDTATYFCARGYGNWFAYWGQGTLVTVSA VL: QIVLTQSPAIMSASLGERVTMTCTASSSVSSSYLHWYQQKPGSSPKLWIYSTSNLASGVPARFSGSGSGTSYSLTISSMEAEDAATYYCHQYHRSPLTFGAGTKLELK
